Measurements as given in PMC9730764.

Experiments:
[1] = target: Staphylococcus aureus cysteine desulfurase SufS (S. aureus USA300_LAC)
[2] = target: Bacillus subtilis cysteine desulfurase SufS (B. subtilis) (UniProt O32164)

Q: With “Staphylococcus aureus sulfurtransferase SufU (from UniProt A0ABV4SS75 2-153) (natural protein)” as the substance, how does the stimulation factor of SufS cysteine desulfurase activity by SufU [1] read?
A: 1.5

Q: What about the stimulation factor of SufS cysteine desulfurase activity by SufU [2] of the same substance?
A: 15
